Results as given in publication PMC11574045, “A cofactor-induced repressive type of transcription factor condensation can be induced by synthetic peptides to suppress tumorigenesis” (The EMBO Journal, 2024).

B1: CBX2 (protein, UniProt Q14781 1-532, looked up)
Chromobox protein homolog 2: MEELSSVGEQVFAAECILSKRLRKGKLEYLVKWRGWSSKHNSWEPEENILDPRLLLAFQKKEHEKEVQNRKRGKRPRGRPRKLTAMSSCSRRSKLKEPDAPSKSKSSSSSSSSTSSSSSSDEEDDSDLDAKRGPRGRETHPVPQKKAQILVAKPELKDPIRKKRGRKPLPPEQKATRRPVSLAKVLKTARKDLGAPASKLPPPLSAPVAGLAALKAHAKEACGGPSAMATPENLASLMKGMASSPGRGGISWQSSIVHYMNRMTQSQAQAASRLALKAQATNKCGLGLDLKVRTQKGELGMSPPGSKIPKAPSGGAVEQKVGNTGGPPHTHGASRVPAGCPGPQPAPTQELSLQVLDLQSVKNGMPGVGLLARHATATKGVPATNPAPGKGTGSGLIGASGATMPTDTSKSEKLASRAVAPPTPASKRDCVKGSATPSGQESRTAPGEARKAATLPEMSAGEESSSSDSDPDSASPPSTGQNPSVSVQTSQDWKPTRSLIEHVFVTDVTANLITVTVKESPTSVGFFNLRHY
B2: ZNF41 (protein, UniProt P51814 1-821, looked up)
Zinc finger protein 41: MAANGDSPPWSPALAAEGRGSSCEVRRERTPEARIHSVKRYPDLSPGPKGRSSADHAALNSIVSLQASVSFEDVTVDFSKEEWQHLDPAQRRLYWDVTLENYSHLLSVGYQIPKSEAAFKLEQGEGPWMLEGEAPHQSCSGEAIGKMQQQGIPGGIFFHCERFDQPIGEDSLCSILEELWQDNDQLEQRQENQNNLLSHVKVLIKERGYEHKNIEKIIHVTTKLVPSIKRLHNCDTILKHTLNSHNHNRNSATKNLGKIFGNGNNFPHSPSSTKNENAKTGANSCEHDHYEKHLSHKQAPTHHQKIHPEEKLYVCTECVMGFTQKSHLFEHQRIHAGEKSRECDKSNKVFPQKPQVDVHPSVYTGEKPYLCTQCGKVFTLKSNLITHQKIHTGQKPYKCSECGKAFFQRSDLFRHLRIHTGEKPYECSECGKGFSQNSDLSIHQKTHTGEKHYECNECGKAFTRKSALRMHQRIHTGEKPYVCADCGKAFIQKSHFNTHQRIHTGEKPYECSDCGKSFTKKSQLHVHQRIHTGEKPYICTECGKVFTHRTNLTTHQKTHTGEKPYMCAECGKAFTDQSNLIKHQKTHTGEKPYKCNGCGKAFIWKSRLKIHQKSHIGERHYECKDCGKAFIQKSTLSVHQRIHTGEKPYVCPECGKAFIQKSHFIAHHRIHTGEKPYECSDCGKCFTKKSQLRVHQKIHTGEKPNICAECGKAFTDRSNLITHQKIHTREKPYECGDCGKTFTWKSRLNIHQKSHTGERHYECSKCGKAFIQKATLSMHQIIHTGKKPYACTECQKAFTDRSNLIKHQKMHSGEKRYKASD
B3: CCNC (protein, UniProt P24863 1-283, looked up)
Cyclin-C: MAGNFWQSSHYLQWILDKQDLLKERQKDLKFLSEEEYWKLQIFFTNVIQALGEHLKLRQQVIATATVYFKRFYARYSLKSIDPVLMAPTCVFLASKVEEFGVVSNTRLIAAATSVLKTRFSYAFPKEFPYRMNHILECEFYLLELMDCCLIVYHPYRPLLQYVQDMGQEDMLLPLAWRIVNDTYRTDLCLLYPPFMIALACLHVACVVQQKDARQWFAELSVDMEKILEIIRVILKLYEQWKNFDERKEMATILSKMPKPKPPPNSEGEQGPNGSQNSSYSQS
B4: ZNF473 (protein, UniProt Q8WTR7 1-871, looked up)
Zinc finger protein 473: MAEEFVTLKDVGMDFTLGDWEQLGLEQGDTFWDTALDNCQDLFLLDPPRPNLTSHPDGSEDLEPLAGGSPEATSPDVTETKNSPLMEDFFEEGFSQEIIEMLSKDGFWNSNFGEACIEDTWLDSLLGDPESLLRSDIATNGESPTECKSHELKRGLSPVSTVSTGEDSMVHNVSEKTLTPAKSKEYRGEFFSYSDHSQQDSVQEGEKPYQCSECGKSFSGSYRLTQHWITHTREKPTVHQECEQGFDRNASLSVYPKTHTGYKFYVCNEYGTTFSQSTYLWHQKTHTGEKPCKSQDSDHPPSHDTQPGEHQKTHTDSKSYNCNECGKAFTRIFHLTRHQKIHTRKRYECSKCQATFNLRKHLIQHQKTHAAKTTSECQECGKIFRHSSLLIEHQALHAGEEPYKCNERGKSFRHNSTLKIHQRVHSGEKPYKCSECGKAFHRHTHLNEHRRIHTGYRPHKCQECVRSFSRPSHLMRHQAIHTAEKPYSCAECKETFSDNNRLVQHQKMHTVKTPYECQECGERFICGSTLKCHESVHAREKQGFFVSGKILDQNPEQKEKCFKCNKCEKTFSCSKYLTQHERIHTRGVKPFECDQCGKAFGQSTRLIHHQRIHSRVRLYKWGEQGKAISSASLIKLQSFHTKEHPFKCNECGKTFSHSAHLSKHQLIHAGENPFKCSKCDRVFTQRNYLVQHERTHARKKPLVCNECGKTFRQSSCLSKHQRIHSGEKPYVCDYCGKAFGLSAELVRHQRIHTGEKPYVCQECGKAFTQSSCLSIHRRVHTGEKPYRCGECGKAFAQKANLTQHQRIHTGEKPYSCNVCGKAFVLSAHLNQHLRVHTQETLYQCQRCQKAFRCHSSLSRHQRVHNKQQYCL
B5: ZNF483 (protein, UniProt Q8TF39 1-744, looked up)
Zinc finger protein 483: MQAVVPLNKMTAISPEPQTLASTEQNEVPRVVTSGEQEAILRGNAADAESFRQRFRWFCYSEVAGPRKALSQLWELCNQWLRPDIHTKEQILELLVFEQFLTILPGEIRIWVKSQHPESSEEVVTLIEDLTQMLEEKDPVSQDSTVSQEENSKEDKMVTVCPNTESCESITLKDVAVNFSRGEWKKLEPFQKELYKEVLLENLRNLEFLDFPVSKLELISQLKWVELPWLLEEVSKSSRLDESALDKIIERCLRDDDHGLMEESQQYCGSSEEDHGNQGNSKGRVAQNKTLGSGSRGKKFDPDKSPFGHNFKETSDLIKHLRVYLRKKSRRYNESKKPFSFHSDLVLNRKEKTAGEKSRKSNDGGKVLSHSSALTEHQKRQKIHLGDRSQKCSKCGIIFIRRSTLSRRKTPMCEKCRKDSCQEAALNKDEGNESGEKTHKCSKCGKAFGYSASLTKHRRIHTGEKPYMCNECGKAFSDSSSLTPHHRTHSGEKPFKCDDCGKGFTLSAHLIKHQRIHTGEKPYKCKDCGRPFSDSSSLIQHQRIHTGEKPYTCSNCGKSFSHSSSLSKHQRIHTGEKPYKCGECGKAFRQNSCLTRHQRIHTGEKPYLCNDCGMTFSHFTSVIYHQRLHSGEKPYKCNQCEKAFPTHSLLSRHQRIHTGVKPYKCKECGKSFSQSSSLNEHHRIHTGEKPYECNYCGATFSRSSILVEHLKIHTGRREYECNECEKTFKSNSGLIRHRGFHSAE
B6: ZNF484 (protein, UniProt Q5JVG2 1-852, looked up)
Zinc finger protein 484: MTKSLESVSFKDVTVDFSRDEWQQLDLAQKSLYREVMLENYFNLISVGCQVPKPEVIFSLEQEEPCMLDGEIPSQSRPDGDIGFGPLQQRMSEEVSFQSEININLFTRDDPYSILEELWKDDEHTRKCGENQNKPLSRVVFINKKTLANDSIFEYKDIGEIVHVNTHLVSSRKRPHNCNSCGKNLEPIITLYNRNNATENSDKTIGDGDIFTHLNSHTEVTACECNQCGKPLHHKQALIQQQKIHTRESLYLFSDYVNVFSPKSHAFAHESICAEEKQHECHECEAVFTQKSQLDGSQRVYAGICTEYEKDFSLKSNRQKTPYEGNYYKCSDYGRAFIQKSDLFRCQRIHSGEKPYEYSECEKNLPQNSNLNIHKKIHTGGKHFECTECGKAFTRKSTLSMHQKIHTGEKPYVCTECGKAFIRKSHFITHERIHTGEKPYECSDCGKSFIKKSQLHVHQRIHTGENPFICSECGKVFTHKTNLIIHQKIHTGERPYICTVCGKAFTDRSNLIKHQKIHTGEKPYKCSDCGKSFTWKSRLRIHQKCHTGERHYECSECGKAFIQKSTLSMHQRIHRGEKPYVCTECGKAFFHKSHFITHERIHTGEKPYECSICGKSFTKKSQLHVHQQIHTGEKPYRCAECGKAFTDRSNLFTHQKIHTGEKPYKCSDCGKAFTRKSGLHIHQQSHTGERHYECSECGKAFARKSTLIMHQRIHTGEKPYICNECGKSFIQKSHLNRHRRIHTGEKPYECSDCGKSFIKKSQLHEHHRIHTGEKPYICAECGKAFTIRSNLIKHQKIHTKQKPYKCSDLGKALNWKPQLSMPQKSDNGEVECSMPQLWCGDSEGDQGQLSSI
B7: ZNF488 (protein, UniProt Q96MN9 1-340, looked up)
Zinc finger protein 488: MPEWPPCLSVAPALVITMAAGKGAPLSPSAENRWRLSEPELGRGCKPVLLEKTNRLGPEAAVGRAGRDVGSAELALLVAPGKPRPGKPLPPKTRGEQRQSAFTELPRMKDRQVDAQAQEREHDDPTGQPGAPQLTQNIPRGPAGSKVFSVWPSGARSEQRSAFSKPTKRPAERPELTSVFPAGESADALGELSGLLNTTDLACWGRLSTPKLLVGDLWNLQALPQNAPLCSTFLGAPTLWLEHTQAQVPPPSSSSTTSWALLPPTLTSLGLSTQNWCAKCNLSFRLTSDLVFHMRSHHKKEHAGPDPHSQKRREEALACPVCQEHFRERHHLSRHMTSHS
B8: ZNF501 (protein, UniProt Q96CX3 1-271, looked up)
Zinc finger protein 501: MNSSQISLRMKHGRVNMQKKPSKCSECGKFFTQRSSLTQHQRIHRGEKPYVCSECGSCFRKQSNLTQHLRIHTGEKPYKCNECEKAFQTKAILVQHLRIHTGEKPYKCNECGKAFCQSPSLIKHQRIHTGEKPYKCTECGKAFSQSICLTRHQRSHSGDKPFKCNECGKAFNQSACLMQHQRIHSGEKPYTCTECGKAFTQNSSLVEHERTHTGEKLYKCSECEKTFRKQAHLSEHYRIHTGEKPYECVGCGKSFRHSSALLRHQRLHAGE
B9: CCNH (protein, UniProt P51946 1-323, looked up)
Cyclin-H: MYHNSSQKRHWTFSSEEQLARLRADANRKFRCKAVANGKVLPNDPVFLEPHEEMTLCKYYEKRLLEFCSVFKPAMPRSVVGTACMYFKRFYLNNSVMEYHPRIIMLTCAFLACKVDEFNVSSPQFVGNLRESPLGQEKALEQILEYELLLIQQLNFHLIVHNPYRPFEGFLIDLKTRYPILENPEILRKTADDFLNRIALTDAYLLYTPSQIALTAILSSASRAGITMESYLSESLMLKENRTCLSQLLDIMKSMRNLVKKYEPPRSEEVAVLKQKLERCHSAELALNVITKKRKGYEDDDYVSKKSKHEEEEWTDDDLVESL
B10: ZNF512 (protein, UniProt Q96ME7 1-567, looked up)
Zinc finger protein 512: MSSRLGAVPATSGPTTFKQQRSTRIVGAKNSRTQCSIKDNSFQYTIPHDDSLSGSSSASSCEPVSDFPASFRKSTYWMKMRRIKPAATSHVEGSGGVSAKGKRKPRQEEDEDYREFPQKKHKLYGRKQRPKTQPNPKSQARRIRKEPPVYAAGSLEEQWYLEIVDKGSVSCPTCQAVGRKTIEGLKKHMENCKQEMFTCHHCGKQLRSLAGMKYHVMANHNSLPILKAGDEIDEPSERERLRTVLKRLGKLRCMRESCSSSFTSIMGYLYHVRKCGKGAAELEKMTLKCHHCGKPYRSKAGLAYHLRSEHGPISFFPESGQPECLKEMNLESKSGGRVQRRSAKIAVYHLQELASAELAKEWPKRKVLQDLVPDDRKLKYTRPGLPTFSQEVLHKWKTDIKKYHRIQCPNQGCEAVYSSVSGLKAHLGSCTLGNFVAGKYKCLLCQKEFVSESGVKYHINSVHAEDWFVVNPTTTKSFEKLMKIKQRQQEEEKRRQQHRSRRSLRRRQQPGIELPETELSLRVGKDQRRNNEELVVSASCKEPEQEPVPAQFQKVKPPKTNHKRGRK

System: HEK293FT cells transfected with TF library
Assay: Screening of TF condensates based on fluorescent puncta
Assay type: cell-based
Settings: Figure 1B numerical data; TF library screen, one value per transcriptional factor
How it was run: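 Cells were seeded onto plasmid/PEI-loaded wells (plasmid 1.6 μg/ml final) and grown 60 h. Medium with or without glucose followed for 12 h. Fixed, permeabilized cells were stained against Flag or GAL4 tags, and condensate puncta were quantified from 50 random fields per well.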

| Molecule | Z score of condensed fraction |
| --- | --- |
| B1 | 1.201 |
| B2 | -0.7537 |
| B3 | -0.5132 |
| B4 | -0.9289 |
| B5 | 2.279 |
| B6 | -0.5495 |
| B7 | -0.1473 |
| B8 | -1.032 |
| B9 | -0.9342 |
| B10 | -0.5967 |
